According to the supplement of paper PMC9112550, “Optimization of the antimicrobial peptide Bac7 by deep mutational scanning” (BMC Biology, 2022):

System: Escherichia coli TOP10
Assay: shrunken log2 fold change of peptide-encoding DNA abundance (4.5 h post-induction vs induction); higher = less antimicrobial activity (less host growth inhibition)
Details: time post-induction: 4.5 h; library: site-saturation at positions 5, 18, 19, 20
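Also: peptides expressed intracellularly from a pBAD plasmid library in pooled LB shake-flask culture, induced with 0.3% L-arabinose, DNA abundance read by NGS, three biological replicates, DESeq2 with apeglm shrinkage.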

| Sequence | shrunken log2 fold change |
| --- | --- |
| RRIRIRPPRLPRPRPRPHIKPRP | -1.12 |
| RRIRIRPPRLPRPRPRPHLAPRP | 0.0435 |
| RRIRIRPPRLPRPRPRPHLPPRP | -0.0411 |
| RRIRIRPPRLPRPRPRPHMLPRP | -0.943 |
| RRIRIRPPRLPRPRPRPHNTPRP | -0.961 |
| RRIRIRPPRLPRPRPRPHPEPRP | -0.023 |
| RRIRIRPPRLPRPRPRPHPIPRP | -0.265 |
| RRIRIRPPRLPRPRPRPHPKPRP | -0.258 |
| RRIRIRPPRLPRPRPRPHQFPRP | -0.525 |
| RRIRIRPPRLPRPRPRPHREPRP | -0.0487 |
| RRIRIRPPRLPRPRPRPHSAPRP | -0.143 |
| RRIRIRPPRLPRPRPRPHSCPRP | -0.0433 |
| RRIRIRPPRLPRPRPRPHSSPRP | -0.448 |
| RRIRIRPPRLPRPRPRPHVWPRP | -0.287 |
| RRIRIRPPRLPRPRPRPHWPPRP | 0.00237 |
| RRIRIRPPRLPRPRPRPIAVPRP | -0.0939 |
| RRIRIRPPRLPRPRPRPIAWPRP | 0.0253 |
| RRIRIRPPRLPRPRPRPICDPRP | -0.412 |
| RRIRIRPPRLPRPRPRPICEPRP | -0.0283 |
| RRIRIRPPRLPRPRPRPICMPRP | -0.407 |
| RRIRIRPPRLPRPRPRPICRPRP | -0.107 |
| RRIRIRPPRLPRPRPRPIDDPRP | 0.0145 |
| RRIRIRPPRLPRPRPRPIDFPRP | -0.0103 |
| RRIRIRPPRLPRPRPRPIDVPRP | 0.00859 |
| RRIRIRPPRLPRPRPRPIFYPRP | -0.775 |

| Sequence | shrunken log2 fold change |
| --- | --- |
| RRIRIRPPRLPRPRPRPIGEPRP | 0.0399 |
| RRIRIRPPRLPRPRPRPIHNPRP | -0.936 |
| RRIRIRPPRLPRPRPRPIILPRP | -0.646 |
| RRIRIRPPRLPRPRPRPIIRPRP | -0.453 |
| RRIRIRPPRLPRPRPRPIIYPRP | -0.396 |
| RRIRIRPPRLPRPRPRPIKQPRP | 0.00391 |
| RRIRIRPPRLPRPRPRPILTPRP | -0.854 |
| RRIRIRPPRLPRPRPRPIMFPRP | -0.314 |
| RRIRIRPPRLPRPRPRPIMHPRP | -0.252 |
| RRIRIRPPRLPRPRPRPIMIPRP | -0.0324 |
| RRIRIRPPRLPRPRPRPIMVPRP | -0.412 |
| RRIRIRPPRLPRPRPRPINNPRP | -0.751 |
| RRIRIRPPRLPRPRPRPIPIPRP | -0.317 |
| RRIRIRPPRLPRPRPRPIRFPRP | -1.35 |
| RRIRIRPPRLPRPRPRPISPPRP | 0.0361 |
| RRIRIRPPRLPRPRPRPISRPRP | -0.0044 |
| RRIRIRPPRLPRPRPRPISYPRP | -0.197 |
| RRIRIRPPRLPRPRPRPITIPRP | -0.436 |
| RRIRIRPPRLPRPRPRPIVGPRP | 0.00911 |
| RRIRIRPPRLPRPRPRPIVIPRP | -0.103 |
| RRIRIRPPRLPRPRPRPIVVPRP | -0.666 |
| RRIRIRPPRLPRPRPRPIWHPRP | -0.455 |
| RRIRIRPPRLPRPRPRPIWIPRP | -0.269 |
| RRIRIRPPRLPRPRPRPIWYPRP | -1.64 |
| RRIRIRPPRLPRPRPRPKAQPRP | -0.0442 |

| Sequence | shrunken log2 fold change |
| --- | --- |
| RRIRIRPPRLPRPRPRPKCMPRP | -0.229 |
| RRIRIRPPRLPRPRPRPKCNPRP | -0.701 |
| RRIRIRPPRLPRPRPRPKDPPRP | -0.111 |
| RRIRIRPPRLPRPRPRPKEEPRP | 0.0133 |
| RRIRIRPPRLPRPRPRPKFFPRP | -0.116 |
| RRIRIRPPRLPRPRPRPKGGPRP | 0.04 |
| RRIRIRPPRLPRPRPRPKIQPRP | -0.196 |
| RRIRIRPPRLPRPRPRPKKAPRP | -0.209 |
| RRIRIRPPRLPRPRPRPKKCPRP | -0.0871 |
| RRIRIRPPRLPRPRPRPKLFPRP | -0.179 |
| RRIRIRPPRLPRPRPRPKMIPRP | -0.379 |
| RRIRIRPPRLPRPRPRPKMVPRP | -0.159 |
| RRIRIRPPRLPRPRPRPKNLPRP | -0.0922 |
| RRIRIRPPRLPRPRPRPKNPPRP | -0.439 |
| RRIRIRPPRLPRPRPRPKPAPRP | 0.243 |
| RRIRIRPPRLPRPRPRPKPYPRP | -0.24 |
| RRIRIRPPRLPRPRPRPKRFPRP | 0.276 |
| RRIRIRPPRLPRPRPRPKTPPRP | -0.0573 |
| RRIRIRPPRLPRPRPRPKYVPRP | -0.134 |
| RRIRIRPPRLPRPRPRPLAGPRP | 0.00712 |
| RRIRIRPPRLPRPRPRPLAKPRP | -0.346 |
| RRIRIRPPRLPRPRPRPLCNPRP | -0.807 |
| RRIRIRPPRLPRPRPRPLEEPRP | 0.073 |
| RRIRIRPPRLPRPRPRPLFLPRP | -0.653 |
| RRIRIRPPRLPRPRPRPLFNPRP | -1.02 |
